The supplement of paper PMC9732359
± gives the uncertainty stated by the source.

Test: protein stability index of a GFP-peptide fusion (yeast GPS) (PSI 1-4); higher = more stable; sorted into four equal gates, so the index is relative within each strain
Outline: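 The protein stability index of a peptide was calculated by multiplying its read frequency in each gate by that gate's number and adding the products. The peptides were tiled 17-residue stretches of yeast proteins, fused downstream of GFP on a Cherry-expressing plasmid and carried in yeast as a pooled library. Mid-log cultures in leucine-free medium were sorted into four equal gates by GFP/Cherry ratio, and each gate's plasmids were PCR-amplified and Illumina-sequenced.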

YKRSIVRNYKPLINRLK [SWI1]
protein stability index (doa10∆): 2.4 ± 0.13 | protein stability index (pdr5∆): 2.7 ± 0.1 | protein stability index (san1∆): 1.65 ± 0.21 | protein stability index (ubr1∆): 1.98 ± 0.15

YKWTQGINNLSEIWDVS [PRP8]
protein stability index (doa10∆): 3.03 ± 0.1 | protein stability index (pdr5∆): 2.9 ± 0.077 | protein stability index (san1∆): 3.12 ± 0.099 | protein stability index (ubr1∆): 2.44 ± 0.066

YLACKVEECPQYIRTLV [SSN8]
protein stability index (doa10∆): 1.25 ± 0.14 | protein stability index (pdr5∆): 1.27 ± 0.14 | protein stability index (san1∆): 1.68 ± 0.16 | protein stability index (ubr1∆): 1.96 ± 0.17

YLAHEDNKEKDFELEIS [PRE10]
protein stability index (doa10∆): 2.84 ± 0.17 | protein stability index (pdr5∆): 2.86 ± 0.12 | protein stability index (san1∆): 3.23 ± 0.1 | protein stability index (ubr1∆): 3.33 ± 0.072

YLKHNSIAEEIPIAIVL [RET1]
protein stability index (doa10∆): 2.65 ± 0.052 | protein stability index (pdr5∆): 2.18 ± 0.047 | protein stability index (san1∆): 1.73 ± 0.085 | protein stability index (ubr1∆): 2.16 ± 0.05

YLSGAIPNQEVLQYSDW [YDL116W/NUP84]
protein stability index (doa10∆): 2.37 ± 0.12 | protein stability index (pdr5∆): 1.83 ± 0.074 | protein stability index (san1∆): 2.29 ± 0.051 | protein stability index (ubr1∆): 2 ± 0.071

YLTGGQQPTASDNIASL [SMD1]
protein stability index (doa10∆): 3 ± 0.21 | protein stability index (pdr5∆): 2.57 ± 0.18 | protein stability index (san1∆): 3.04 ± 0.099 | protein stability index (ubr1∆): 2.61 ± 0.18

YNALFQQNIKFRRDFLL [YJL039C/NUP192]
protein stability index (doa10∆): 2.38 ± 0.096 | protein stability index (pdr5∆): 2.02 ± 0.063 | protein stability index (san1∆): 2.4 ± 0.068 | protein stability index (ubr1∆): 2.3 ± 0.055

YNGFIDIFSNLSSDDLL [YCS4]
protein stability index (doa10∆): 3.16 ± 0.044 | protein stability index (pdr5∆): 2.99 ± 0.066 | protein stability index (san1∆): 3.28 ± 0.056 | protein stability index (ubr1∆): 3.08 ± 0.037

YNNKVGVAASQGSMSER [SIR2]
protein stability index (doa10∆): 1.79 ± 0.066 | protein stability index (pdr5∆): 2.04 ± 0.063 | protein stability index (san1∆): 2.49 ± 0.12 | protein stability index (ubr1∆): 1.85 ± 0.064

YNPKMIDDRDYVGNKRL [RET1]
protein stability index (ubr1∆): 3.49 ± 0.26

YNSVAEAKKFEPTYRLV [RPS24A]
protein stability index (doa10∆): 2.87 ± 0.14 | protein stability index (pdr5∆): 2.95 ± 0.13 | protein stability index (san1∆): 2.71 ± 0.18 | protein stability index (ubr1∆): 2.74 ± 0.072

YNTSILEFRWLTSSKSV [SIN4]
protein stability index (doa10∆): 1.79 ± 0.065 | protein stability index (pdr5∆): 1.91 ± 0.081 | protein stability index (san1∆): 1.96 ± 0.079 | protein stability index (ubr1∆): 2.48 ± 0.1

YNVENQQYVAAGDLRAL [FAS1]
protein stability index (doa10∆): 2.81 ± 0.11 | protein stability index (pdr5∆): 2.83 ± 0.087 | protein stability index (san1∆): 2.82 ± 0.13 | protein stability index (ubr1∆): 2.85 ± 0.13

YPVHEAHKGQIVLIKGI [SNU114]
protein stability index (doa10∆): 1.52 ± 0.095 | protein stability index (pdr5∆): 2.45 ± 0.088 | protein stability index (san1∆): 1.37 ± 0.15 | protein stability index (ubr1∆): 2.87 ± 0.088

YQKLFSQFINDHILFTK [SRB8]
protein stability index (doa10∆): 1.94 ± 0.044 | protein stability index (pdr5∆): 2.06 ± 0.048 | protein stability index (san1∆): 2.04 ± 0.065 | protein stability index (ubr1∆): 2 ± 0.04

YQWNLDGLQQLDKYLYV [RPN1]
protein stability index (doa10∆): 2.92 ± 0.068 | protein stability index (pdr5∆): 3.08 ± 0.058 | protein stability index (san1∆): 2.49 ± 0.12 | protein stability index (ubr1∆): 2.2 ± 0.046

YSIDEFFLQRKLRSELG [BRR2]
protein stability index (doa10∆): 2.3 ± 0.12 | protein stability index (pdr5∆): 2.06 ± 0.13 | protein stability index (san1∆): 1.8 ± 0.16 | protein stability index (ubr1∆): 1.5 ± 0.22

YSKNNPNLLFSMCGFEV [PRP8]
protein stability index (doa10∆): 2.96 ± 0.093 | protein stability index (pdr5∆): 2.69 ± 0.093 | protein stability index (san1∆): 2.17 ± 0.076 | protein stability index (ubr1∆): 2.4 ± 0.092

YSKSFEQFKMVSMITDH [POP1]
protein stability index (doa10∆): 2.3 ± 0.12 | protein stability index (pdr5∆): 1.97 ± 0.23 | protein stability index (san1∆): 1.62 ± 0.26 | protein stability index (ubr1∆): 1.95 ± 0.15

YSMISLQNCCIIDVGTH [ARP9]
protein stability index (doa10∆): 1.75 ± 0.085 | protein stability index (pdr5∆): 1.41 ± 0.067 | protein stability index (san1∆): 1.2 ± 0.15 | protein stability index (ubr1∆): 1.33 ± 0.083

YSSVAGTVSRVNRLLSV [RRP4]
protein stability index (doa10∆): 1.74 ± 0.036 | protein stability index (pdr5∆): 1.77 ± 0.038 | protein stability index (san1∆): 1.82 ± 0.053 | protein stability index (ubr1∆): 1.8 ± 0.03

YSTIRQLVYKRGFGKIN [RPL7A]
protein stability index (doa10∆): 2.34 ± 0.064 | protein stability index (pdr5∆): 1.97 ± 0.047 | protein stability index (san1∆): 2.24 ± 0.11 | protein stability index (ubr1∆): 1.98 ± 0.049

YSWLLFEASCMEGQKLD [YJR042W/NUP85]
protein stability index (doa10∆): 1.09 ± 0.094 | protein stability index (pdr5∆): 1.36 ± 0.09 | protein stability index (san1∆): 1.39 ± 0.2 | protein stability index (ubr1∆): 1.17 ± 0.064

YSYTTIVLSDQTQEFFL [YJL039C/NUP192]
protein stability index (doa10∆): 2.79 ± 0.077 | protein stability index (pdr5∆): 2.92 ± 0.068 | protein stability index (san1∆): 2.93 ± 0.081 | protein stability index (ubr1∆): 2.82 ± 0.062

YTETDPAKVAEEGINKF [SRP54]
protein stability index (doa10∆): 3.05 ± 0.1 | protein stability index (pdr5∆): 3.3 ± 0.097 | protein stability index (san1∆): 2.9 ± 0.089 | protein stability index (ubr1∆): 3.04 ± 0.095

YTKPYPNFEASFVHGVV [SMC2]
protein stability index (doa10∆): 2.53 ± 0.15 | protein stability index (pdr5∆): 2.32 ± 0.13 | protein stability index (san1∆): 2.47 ± 0.26 | protein stability index (ubr1∆): 2.33 ± 0.14

YTPEESAWIWPMDEETK [RPC25]
protein stability index (doa10∆): 2.34 ± 0.068 | protein stability index (pdr5∆): 2.62 ± 0.074 | protein stability index (san1∆): 2.54 ± 0.086 | protein stability index (ubr1∆): 2.65 ± 0.098

YVDTATAKRKSRKRKPK [IRR1]
protein stability index (doa10∆): 3.17 ± 0.1 | protein stability index (pdr5∆): 3.32 ± 0.1 | protein stability index (san1∆): 3.14 ± 0.16 | protein stability index (ubr1∆): 3.12 ± 0.066

YVGEVIKIVSDKKVLVK [RPT6]
protein stability index (doa10∆): 3.03 ± 0.058 | protein stability index (pdr5∆): 2.9 ± 0.055 | protein stability index (san1∆): 3.08 ± 0.067 | protein stability index (ubr1∆): 2.94 ± 0.073

YVNYEISTAKAWGALIT [YML103C/NUP188]
protein stability index (doa10∆): 1.32 ± 0.052 | protein stability index (pdr5∆): 1.43 ± 0.049 | protein stability index (san1∆): 1.3 ± 0.073 | protein stability index (ubr1∆): 1.4 ± 0.06

YVRAKFLDYTTDNVSMY [PRP8]
protein stability index (doa10∆): 2.82 ± 0.059 | protein stability index (pdr5∆): 2.73 ± 0.064 | protein stability index (san1∆): 2.54 ± 0.063 | protein stability index (ubr1∆): 2.82 ± 0.061

YWQFNGVIALGQFVTLG [RMP1]
protein stability index (doa10∆): 3.23 ± 0.094 | protein stability index (pdr5∆): 2.79 ± 0.086 | protein stability index (san1∆): 2.11 ± 0.086 | protein stability index (ubr1∆): 2.91 ± 0.055

YWVPDWDGVIPTPAIIK [RPO21]
protein stability index (doa10∆): 2.34 ± 0.14 | protein stability index (pdr5∆): 2.7 ± 0.096 | protein stability index (san1∆): 2.8 ± 0.081 | protein stability index (ubr1∆): 2.8 ± 0.079

YWYEQDSAKEWPQSKNC [RPB3]
protein stability index (doa10∆): 3.4 ± 0.12 | protein stability index (pdr5∆): 3.3 ± 0.13 | protein stability index (san1∆): 2.98 ± 0.13 | protein stability index (ubr1∆): 3.43 ± 0.22
